Assay results as given in the DeepSol protein solubility set.

test: soluble on expression in E. coli; label from the status in PepcDB or PDB records

| Sequence | soluble on expression in E. coli |
| --- | --- |
| MGSDKIHHHHHHMFNLKPELVARLERVLTSVEMLLPRPTAPVDWSVCHAASWRRHSFSGYLEPVRQTDTVTLPELLGIEKQKEVMTNNTLQFLRGLPANNALLWGSRGTGKSSLVKALLNEYAAQGLRIVQVEKEDLIYLSEIFAAVENEPYRFILLCDDLSFEVGELSYKMLKSALDGSVYSAPENVLIYVTSNRRHLIPEYESDNVGWKYVNGELQQSEAMEEKISLSDRFGLWVAFHVFSQDRYLEAVRLCIEREARQRRVEIPWAKEIEREAIQWSHDKSKRCGRTAFQFSRHWVGRYLLGGR | not soluble |
| MDNLNVFANEDNQVNDVKPPPPPPRVCARCDSDNTKFCYYNNYCEFQPRYFCKNCRRYWTHGGALRNIPIGGSSRAKRARVNQPSVARMVSVETQRGNNQPFSNVQENVHLVGSFGASSSSSVGAVGNLFGSLYDIHGGMVTNLHPTRTVRPNHRLAFHDGSFEQDYYDVGSDNLLVNQQVGGYGYHMNPVDQFKWNQSFNNTMNMNYNNDSTSGSSRGSDMNVNHDNKKIRYRNSVIMHPCHLEKDGP | not soluble |
| NNINVITDQMGNLDIKSNDNINQNTQNSNVASDLNLLTQNKYLENILMMNTYGVNYDHLFLPQNVAYLAAQQLSNNIMNNRNQINAAYTSQQYPNQSIPIKNIYDQSHLKYQQNSSSWRPPLNNGNIYDGVKSNPMGLHILQNGIDLYTNVDSNSVTSAINFDKYDSIPVSVTGPDYSATNVIENFDELKLDPTIRNNILLASYQRPTPIQKNAIPAILEHRDIMACAQTGSGKTAAFLIPIINHLVCQDLNQQRYSKTAYPKCLILAPTRELAIQILSESQKFSLNTPLRSCVVYGGADTHSQIREVQMGCHLLVATPGRLVDFIEKNKISLEFCKYIVLDEADRMLDMGFEPQIRKIIEESNMPSGINRQTLMFSATFPKEIQKLAADFLYNYIFMTVGRVGSTSDSIKQEIIYMTDVEKLNYLKNIFNTTAPNTLILIFVETKKGADSLARFLLSKGYPVSSIHGDRSQVEREAALSMFRNGQCPILVATAVAARGLDIPNVKHVINYDLPSDIEEYVHRIGRTGRLGNHGRATSFYVDKNNNIAIDLVDLLKEANQIVPQWLSALADELKRNSTMGSNNKRHNQRRYKNGNFGGRDYRQGPSNVNMNSGVNPDYFISGSVAPRHAKLNNGNYFPRSNELHDQHQKQNNNNNQVISNTFHTGISASHLIPGYATFNRQQAPLHFIPHQTNNTQFLSSSGQMALYNRMQNSGHMAPNQRFPNEPIHHQQEQLPITYNFSKNLPYLGQSYSGHNNNNNNNNNTSKINDSDSCYFGNKTPR | soluble |
| MSGAPPPPPPYNQAYNAYPQPPQGVYTVQPGVPIGQGVQPAYAVYYQQPQTVIVDDCHHHHHHREREHGGGGGEMCCLAGLMACLCFLCLSK | not soluble |
| MGHHHHHHSHMLFIKFIHLEVFSMPERAIARHEVREIEQRHTMDGPRQDATLDEEEDMVIIYNRVPKTASTSFTNIAYDLCAKNKYHVLHINTTKNNPVMSLQDQVRFVKNITSWKEMKPGFYHGHVSYLDFAKFGVKKKPIYINVIRDPIERLVSYYYFLRFGDDYRPGLRRRKQGDKKTFDECVAEGGSDCAPEKLWLQIPFFCGHSSECWNVGSRWAMDQAKYNLINEYFLVGVTEELEDFIMLLEAALPRFFRGATELYRTAPDTATPSHRHGPICGSKSISSLLVKVSPVCKDSHCLGKCSRNGLSAV | not soluble |
| GPGSMVQRTLFDFVSKKGDNATTEEVGSKTESGQPSASSRKRTAEDQVANGGASNLTRARVAKENNGALASLIVDPGWEAFLKPLTTSSNFERIEKFLEGELNAGKTILPPREMIFSAFNSTPLDMLKVVLLGQDPYHNVGQAHGLCFSVLPGVPPPPSLINMYKELATDIPGFVAPQHGYLQHWAEQGVLMLNATLTVEIHKANSHATCGWQTFTDDVIRLLSEKHKNPLVFLLWGGFAKRKISLIDRKRHVVIECAHPSPLSAAKWWGSRPFSKCNTALVEKKLSPIDWKLPVCLSKGK | not soluble |
| MGLLVDGRWQDQWYESSKDGAFQRENAQRRNWVTRDGQAGPSGEGGFAAEAGRYHLYVSLACPWAHRTLILRKLKGLEKLIDVSVVSWLMLENGWTFDQQKGSSGDALDDFQFFHQRYTADDPRYTGRVTVPVLWDKQQQRIVSNESAEIIRMFNAAFDELTGNTLDFYPSALQSSIDELNEQIYPKVNNGVYRAGFATSQGAYEEAFDDVFAELDVLENLLGEKRYLTGKHLTEADIRLFTTIVRFDAVYYSHFKCNLRRIADYPNLSNWLRELYQWPGIAETVDFEHIKGHYYASHRTINPTGIIPKGPALDLQAGHDRERLSGEGAWSK | not soluble |
| MSLTDSKYISIKGARVNNLKNIDVNIPRNKLVVITGLSGSGKSSLAFDTLYAEGQRRYVESLSSYARQFLGRMSKPECDFIKGIPPAIAIEQKVNSRNPRSTVGTSTEIYEYLRLLYARVGKTYSPVSGEEVKKHSIEDIVNCMLSYPEGTRYTVLTQIYLHDGRTLEQQLEIDRKQGFNRLEVNGEMVRIDEYAAGKEDVVYLLVDRMTAAKSKDAISRLTDSAETAMYEGDGMCMLRFYQPDGTTRLHTFSTKFEADGMTFEEPNDQMFSFNSPIGACPVCEGFGKVIGIDEHLVVPNRSLSVYDGAIVCWRGEKMGEWREELIHNAEKFNFPIFTPYYELTDEQRRVLWEGNQYFHGINDFFKMLEENQYKIQYRVMLARYRGKTLCPKCHGTRLKPEAGYVRVGGKNISELVDLPITELQKFFDSLTLNEHDQAVARRILTEINSRIRFLIDVGLGYLTLNRLSNSLSGGESQRINLATSLGSSLVGSLYILDEPSIGLHSRDTDRLVHVLRQLQQLGNTVVVVEHDEEIIRAADYIIDIGPNAGRLGGQVVYEGDMKDLKKGSNSYTVKYLLGEETIPVPEHRRPWNNYIEIKGARENNLKGVDARFPLNVMTVVTGVSGSGKSTLVRDIFYRALKRELDECSERPGEFVSIEGDLRNLRNVEFVDQNPIGKSSRSNPVTYIKAYDEIRKLWADQPLAKQMGYTAGHFSFNNEGGRCEECKGDGTITVEMQFMADLVLECESCHGKRFKADTLEVKFQDKNIYDILEMTVNQAIEFFTEHGQKKVVKKLIPLQDVGLGYIKLGQSSSTLSGGENQRVKLAYYLSQEKADPTLFIFDEPTTGLHFHDIRKLLDAFDALIRRGHSIVIIEHNMDVIKCADYVIDLGPEGGDKGGNIVATGTPEEVAACAASYTGQFLQEKLNHLEGHHHHHH | soluble |
| MDEEKIVLIGNESDLLHCGYNFALRAGGKRYPSAAHYTHYQILMSLNLPETAVEELLCTNSCDVHQKALVILQENMPDGHTINSLAAYLSESLRSYSIHALQLRAESDKDFEKTLMKTNEALLIVCDEKNPQLGIGMNDKTFMEWMAKEKADSRQISYWMKNEHTKPADLGQNKLGQYLMWLRFEIRERKKQGILTRPVVEVAGLSTDKDDEPIMISINDLVISLEGIFRPLSNYYAFPFEMKRERYRSVEHYAYEKLFNSLKLDEKAIEKIQTTPAPLNVPVVASKLLRKLEINPETIAEKTSKMDRWRQSAMKHKIYHNEYLQQLLLSTGSAILIDSSLGDPLWTCGATEVELQHLLTKSYVTPEKLVGWMLDGEETNTPKSVRHLYGNKSGLLLMELREKLSLQTTSRIPLVKLSKMNLNPLSGIVTPNVICFTPESVFHPLYPAEIRCSADGPPLPSPVHYVATQAAKFLSMNQEDTEYILEGPSSIQCWSRLHEVIESRGRGLELEQTWWMDKRMQFIKESLQLLLEQHPALLRALLDTGDSMLVYCSRFSSMDAELSMGMREMDFRYWLQEVDLTTKQLIELCTRPMAFRPPYIGGNRLGMILMELRREFVLQGVFPQQLPELQLTADSILGSNSPTENFMTSEYFDILQPWNYTALWINPLFLLAKDGNQEAMAQCTRIKTAPRMVTIDDEKVTDIVENLVNDETQEEALNSIAPEDLRAVFMKLCARLRGKIETLDRQSMELSMVAMETHRLQSIRRSLADTAERAETEGPSSSTGPSISAPPIPSRPGHSNYRMAAGRERDREEEREKDRERLQSQLSTSSSGPQGSASRKERMEYKIPTTSRRKFGKDRDRLPEKSSSDRGRDKHLDTPTKKRVNQSPPSRKAAPSPAKKPAISTSTPAVVVPPKPKRDPEEELSDGEILSTDEEDN | not soluble |
| MRDATPFYEATGHEIEVFERAWRHGLPVLLKGPTGCGKTRFVQYMARRLELPLYSVACHDDLGAADLLGRHLIGADGTWWQDGPLTRAVREGGICYLDEVVEARQDTTVAIHPLADDRRELYLERTGETLQAPPSFMLVVSYNPGYQNLLKGLKPSTRQRFVALRFDYPAAQQEARILVGESGCAETLAQRLVQLGQALRRLEQHDLEEVASTRLLIFAARLIGDGMDPREACRVALAEPLSDDPATVAALMDIVDLHVALEHHHHHH | not soluble |
| MSISIMTETRPESAEQQHHEVLQRPSDEPCSGCKQLQKDVAKTISMVMERMDKLQYRLDELLKENNELKSSSVSSGKASPSPAESRSSPKLVETVVAPVSGARKRKPKERSPPAAASPLPDFSNLMNGFMFDPLNMSNPNGMMQLLSMVQQQQQQQQHHQHIENQQSVSPPQSKSVKIEDPMDQDVKQEESERSDIPTATEAQNLLDALTAQFSSNGQATSTTSPPSSSSQVQAVIEAVATPSSQSQDSSMFEKTETSGDPNAARCSNCRTDKTTAWRRDAEGKLVCNPCGLYYRLHKVRRPIEMRKNHIQQRYRRKNKEKESSAATQIFNQLLTQMPTMATGGVSTDGAINTFNLLEQISQFTQAQELMNSSATF | not soluble |
| MGHHHHHHSHMADTLAILNEFLLERSKREAEEENQIANKTGKDAQFEEDWQLSQFWYSTETKHALRDVVRKLLAERTKDSGDFSIALLSCPSLYKDIREIHDTVHIFEFDKRFEAYGTDFVHYDLNCVGSNPDYLKEHHQQYDLIVADPPF | soluble |
| TDDVEEDGEPSYKRVAEPEEDESAKPFGGEKAKAARPEPAVKGVRHTSPAPTAAPEKKTSWWDSFKAWLKRIFGGSETQAAPAAETSEKRSTANRSGSRANNRRQNPRRSKREGSKVEVREVAGKTAGQEARADKAETRNNGNRRRNERGDRAAERANEAEIQSRNVQPAATVADAAPSETEVQTGKRRRNGSRSERGQTAPETATVAETTVQTAENTPSEPHTAEDKGSKPKSERNRRERDSRDAKERRERNNQRDRRQNGKKRNIPSAAKIEQYLNIHDTADKVRSAAAHVFGETDANAPITVSIADPVAERDLPTASPAVSNGDAPVYDAAEKIRRATAAILPEGATPKAEAQEMPSETATFTAAAEQARETAQTGGLVLIETDPAALKAWAAQPEVQAGRGLRRSEQPKPSEVATVPAEEMIQVETRQG | not soluble |
| MGSDKIHHHHHHMIRLDNISKQNGHQILFIEASMGVQKGEKVGLVGPNGAGKTTLFRMITGQEQPDDGIVSIDAGMRIGYFSQDVGEMSGQSAVAAVMDGVGPVSALAAEMATLEAAMVDPDQADQLDAVMERYGEVLERFQELDGYALEARAREVLAGLSFSQERMDADVGLLSGGWKMRVALARILLMRPDGMLLDEPSNHLDLESLIWLESFLKNYDGALLMTSHDRAFMNRIIGKVIEIDAGSLITYSGDLDFYDQQRALSEAQRQAQYERQQAMLAKEIKFIEKFKARASHAAQVQSRVKKLDKIERVEAPRRRQTVQFEFQSPPRSGEDVISLRGVHKGYGERPIYQDLDFLVRRKERWAVLGANGAGKSTLLKLVAGDTKPDQGVVNIGASVKMGYFAQHSMDLLDGEETIFESLERSFPQAGQGALRTLAGCFGFSGDDVEKPCRVLSGGEKARLVMAKMLFDPPNLLVLDEPTNHLDMVTKEMLVASLADFEGTMLFVSHDRHFLAALSNRVLELTPEGIHQYGGGYTEYVARTGQEAPGLHPGG | not soluble |
| GSHMSKKILIVESDTALSATLRSALEGRGFTVDETTDGKGSVEQIRRDRPDLVVLAVDLSAGQNGYLICGKLKKDDDLKNVPIVIIGNPDGFAQHRKLKAHADEAVAKPVDADQLVERAGALIGFPE | soluble |
